Results as given in US20260217847A1 (NANJING REGENECORE BIOTECH, published 2026).
Numbering of substitutions follows the chain as printed.

B1: anti-humanized TfR1 protein single-domain antibody 7D10 (VHH clone, crude extract from pMECS) (VHH, not shown: small tags and cut ends)
VHH: ESGGGLVQPGGSLRLSCATSGGTFEMYAMAWFRQAPGKDREGVAGFSWRDSSTTYYSDSVKGRFTISRDNAKNTVYLQMNSLKPEDTAVYYCAARPYVSRWSESSGYDYWGQGTQVTVSS
B2: anti-humanized TfR1 protein single-domain antibody 5D3 (VHH clone, crude extract from pMECS) (VHH, not shown: small tags and cut ends)
VHH: ESGGGLVEPGGSLRLSCAASGNIFSINNMYWHRQAPGKQRELVGGITRGGITNYVDSVKGRFTISRDNAKNTVYLQMNSLKPEDTAVYFCNAHPWRLGIADYWGQGTQVTVSS
B3: anti-humanized TfR1 protein single-domain antibody 7G10 (VHH clone, crude extract from pMECS) (VHH, not shown: small tags and cut ends)
VHH: ESGGGLVQAGASLKLSCNGSGRTFISYAMGWFRQAPGKQREFVAAERWSGSGIYYADSLKGRFTISRDNAKNTVYLEMNNLKPEDTAVYYCAAREGGLLHVATSYDYWGQGTQVTVSS
B4: anti-humanized TfR1 protein single-domain antibody 8E10 (VHH clone, crude extract from pMECS) (VHH, not shown: small tags and cut ends)
VHH: ESGGGLVQAGGSLRLSCAFSGPPFSTYGMGWFRQAPGKEREFVATISGSGFTTTYADSVKGRFTISRDNAKNTVYLQMNSLKPGDTAVYYCAAGVLDGTNWHEYDYWGQGTQVTVSS
B5: anti-humanized TfR1 protein single-domain antibody 5A3 (VHH clone, crude extract from pMECS) (VHH, not shown: small tags and cut ends)
VHH: ESGGGLVQAGGSLTLSCAVSRRAFNTKAMGWFRQAPGKEREFVATISWSGFSTNYADSVKGRFTISRDNAKNTVYLQMNSLKPGDTAVYYCAAGVLDGTNWHEYDYWGQGTQVTVSS
B6: anti-humanized TfR1 protein single-domain antibody 8B8 (VHH clone, crude extract from pMECS) (VHH, not shown: small tags and cut ends)
VHH: B4 VHH with A9P, A18V, F19A, P22R, P23T, Y27S, G48W, G98S, N100S
B7: anti-humanized TfR1 protein single-domain antibody 5D1 (VHH clone, crude extract from pMECS) (VHH, not shown: small tags and cut ends)
VHH: ESGGGLVQPGESLRLSCVASGSIWSIYTMGWYRQAPGKQRDFVASITRDGGRRHAESVKDRFTISRDNAKNTLYLQMNSLKPEDTAVYSCLAITSLGEYWGQGTQVTVSS
B8: anti-humanized TfR1 protein single-domain antibody 4C5 (VHH clone, crude extract from pMECS) (VHH, not shown: small tags and cut ends)
VHH: B7 VHH with V18A, K38L, A44G, T47A, D49E, H54Y, L73M, P82R, S89Y, L91N
B9: anti-humanized TfR1 protein single-domain antibody 7A3 (VHH clone, crude extract from pMECS) (VHH, not shown: small tags and cut ends)
VHH: B7 VHH with G50S, H54Y, M77T, S89Y, L91H
B10: anti-humanized TfR1 protein single-domain antibody 7G5 (VHH clone, crude extract from pMECS) (VHH, not shown: small tags and cut ends)
VHH: ESGGGSVQPGGSLRLSCAVSGSIFSIDTMAWYRQAPGKQRELVAAITKGGSRNYADSVKGRFTISRDNAKNTVYLQMNSLKPEDTAVYYCLADRLFRDRSWGQGTQVTVSS
B11: anti-humanized TfR1 protein single-domain antibody 2H7 (VHH clone, crude extract from pMECS) (VHH, not shown: small tags and cut ends)
VHH: ESGGGLVQPGESLRLSCVASGSIWSIYTMGWYRQAPGKQRDFVASITGDSTRTLESVKDRFIISRDNTKNTLYLQMNSLKPEDTAVYYCQAITSLGEYWGQGTQVTVSS
B12: anti-humanized TfR1 protein single-domain antibody 4D11 (VHH clone, crude extract from pMECS) (VHH, not shown: small tags and cut ends)
VHH: B11 VHH with G48R, T68A, Q90H

molecular target: T1, human recombinant TfR1 protein (amino acids 89-760) (human, UniProt P02786 89-760); assay: ELISA of crude extracts on coated TfR1, anti-HA HRP; positive clone = OD at least 5-fold over control
T1 construct: range 89-760; Expressed in 293F cells from pcDNA3.4; also called humanized TfR1 protein; humanized recombinant TfR1 protein
T1 sequence (P02786 89-760 limits assumed): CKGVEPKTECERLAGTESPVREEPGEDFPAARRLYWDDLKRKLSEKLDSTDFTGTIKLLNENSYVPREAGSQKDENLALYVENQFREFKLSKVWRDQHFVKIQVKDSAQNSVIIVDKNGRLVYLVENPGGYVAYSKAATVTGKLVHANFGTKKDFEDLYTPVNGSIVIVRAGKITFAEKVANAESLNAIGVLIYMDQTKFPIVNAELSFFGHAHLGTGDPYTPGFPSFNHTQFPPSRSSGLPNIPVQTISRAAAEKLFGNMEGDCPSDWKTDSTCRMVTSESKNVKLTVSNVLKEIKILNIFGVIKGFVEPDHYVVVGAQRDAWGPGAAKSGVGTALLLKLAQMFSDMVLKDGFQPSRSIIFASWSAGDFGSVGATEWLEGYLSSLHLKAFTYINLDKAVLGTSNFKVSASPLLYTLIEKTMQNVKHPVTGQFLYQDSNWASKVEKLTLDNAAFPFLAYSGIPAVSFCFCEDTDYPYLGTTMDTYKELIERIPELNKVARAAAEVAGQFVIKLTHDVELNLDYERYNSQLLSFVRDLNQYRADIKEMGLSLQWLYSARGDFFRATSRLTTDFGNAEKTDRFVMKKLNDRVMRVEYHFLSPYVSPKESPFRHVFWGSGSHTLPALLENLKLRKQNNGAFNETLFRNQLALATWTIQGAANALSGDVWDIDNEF
Description: Crude antibody extracts were obtained using osmotic lysis. 100 μL of the obtained crude antibody extract was transferred to the TfR1-coated ELISA plate and incubated at room temperature for 1 hour. Unbound antibodies were washed away with PBST buffer with Tween-20 (PBS purchased from Sangon Biotech, Cat. No. B548117-0500; Tween-20 purchased from Beyotime Biotechnology, Cat. No. ST825). 100 μL of 1:2000-diluted mouse anti-HA horseradish peroxidase (HRP)-conjugated antibody (Thermo Fisher) was added and incubated at room temperature for 1 hour. After washing with PBST buffer to remove unbound antibodies, HRP chromogenic solution was added, followed by a 15-minute reaction at 37° C. With the stop solution added, the absorbance was read at 450 nm using a microplate reader (purchased from TECAN).

Row | binding result | Binder
1 | binds | B1
2 | binds | B2
3 | binds | B3
4 | binds | B4
5 | binds | B5
6 | binds | B6
7 | binds | B7
8 | binds | B8
9 | binds | B9
10 | binds | B10
11 | binds | B11
12 | binds | B12
